Consider three proteins from article PMC7201828, “Comparison of Inhibitor and Substrate Selectivity between Rodent and Human Vascular Adhesion Protein-1” (Mediators of Inflammation, 2020).

Assay in all cases: purified protein, by the assay type
Substrate in series [1]: NCCc1ccc(O)cc1
The settings on record: pH 7.4, 37.0 °C.
Protocol: (§1) The enzymatic activity of recombinant VAP-1 and inhibitor potency was determined using a variation of the fluorometric assay for measuring hydrogen peroxide formation [22]. Briefly, the assay measures the H2O2 generated during the oxidative deamination of an amine substrate (BA for inhibition purposes) by converting Amplex® Red to the fluorescent product, resorufin, via horseradish peroxidase (HRP). […] Stock solutions of Amplex Red (1 mM), HRP (10 U/mL), the substrates (200 μM BA for inhibition), and inhibitor were prepared in reaction buffer and added to the appropriate wells, that the final concentration in each well was 0.05 mM Amplex Red, 0.5 U/mL HRP, and 50 μM BA (saturating condition) in a total reaction volume of 0.1 mL.
(§2) Standard curves were prepared for each plate by serially diluting H2O2 in reaction buffer with equivalent concentrations of Amplex Red and HRP. A 10 μM solution of resorufin was prepared in reaction buffer and was dispensed in duplicate as the positive control for maximum fluorescence. Plates were incubated for 30 minutes at 37°C, protected from light under foil to minimize the resorufin artifactually formed when Amplex Red is exposed to light [28]. The plate was read at 530/35 emission and 590/35 excitation. The mean fluorescence of the background was subtracted from the mean fluorescence of the inhibitor concentration in the presence of BA. The percent control was calculated using equation (1). […] (1) %control=average fluorescence with inhibitor−background/average fluorescence of reaction without inhibitor−background×100, (2) %inhibition=100−%control.
(§3) Both substrates were incubated with recombinant VAP-1 in triplicate on three separate plates.

Substrate in series [2]: NCCc1ccccc1
The settings on record: other: recombinant human VAP-1, substrate; pH 7.4; 37.0 °C.
Protocol: as §1, §2, §3

Substrate in series [3]: NCc1ccccc1
Protocol: as §1, §2, §3
The conditions noted are these: pH 7.4, 37.0 °C.

The mark [4] stands for this setting: other: recombinant human VAP-1, substrate.
The mark [5] stands for this setting: other: recombinant mouse VAP-1, substrate.
Where [6] appears, read: other: recombinant rat VAP-1, substrate.

B1: recombinant human VAP-1 (Homo sapiens) (protein)
chain: GRGGDGGEPSQLPHCPSVSPSAQPWTHPGQSQLFADLSREELTAVMRFLTQRLGPGLVDAAQARPSDNCVFSVELQLPPKAAALAHLDRGSPPPAREALAIVFFGRQPQPNVSELVVGPLPHPSYMRDVTVERHGGPLPYHRRPVLFQEYLDIDQMIFNRELPQASGLLHHCCFYKHRGRNLVTMTTAPRGLQSGDRATWFGLYYNISGAGFFLHHVGLELLVNHKALDPARWTIQKVFYQGRYYDSLAQLEAQFEAGLVNVVLIPDNGTGGSWSLKSPVPPGPAPPLQFYPQGPRFSVQGSRVASSLWTFSFGLGAFSGPRIFDVRFQGERLVYEISLQEALAIYGGNSPAAMTTRYVDGGFGMGKYTTPLTRGVDCPYLATYVDWHFLLESQAPKTIRDAFCVFEQNQGLPLRRHHSDLYSHYFGGLAETVLVVRSMSTLLNYDYVWDTVFHPSGAIEIRFYATGYISSAFLFGATGKYGNQVSEHTLGTVHTHSAHFKVDLDVAGLENWVWAEDMVFVPMAVPWSPEHQLQRLQVTRKLLEMEEQAAFLVGSATPRYLYLASNHSNKWGHPRGYRIQMLSFAGEPLPQNSSMARGFSWERYQLAVTQRKEEEPSSSSVFNQNDPWAPTVDFSDFINNETIAGKDLVAWVTAGFLHIPHAEDIPNTVTVGNGVGFFLRPYNFFDEDPSFYSADSIYFRGDQDAGACEVNPLACLPQAAACAPDLPAFSHGGFSHN
As for B1, the Michaelis constant (Km) in series [1] (setting [4]) was 299 µM; in series [2] it was 5510 ± 5510 µM; in series [3] (setting [4]), 45.3 ± 50.7 µM. For the same protein, the Vmax in series [1] (setting [4]) was found to be 0.40 μmoles/min/mg prot; in series [2], 7.15 µmol/min/mg; in series [3] (setting [4]), 11.2 µmol/min/mg.

B2: recombinant mouse VAP-1 (Mus musculus) (protein)
chain: RSGDGGGLSQPLHCPSVLPSVQPRTHPSQSQPFADLSPEELTAVMSFLTKHLGPGLVDAAQARPSDNCVFSVELQLPAKAAALAHLDRGGPPPVREALAIIFFGGQPKPNVSELVVGPLPHPSYMRDVTVERHGGPLPYYRRPVLDREYQDIEEMIFHRELPQASGLLHHCCFYKHQGQNLLTMTTAPRGLQSGDRATWFGLYYNLSGAGFYPHPIGLELLIDHKALDPALWTIQKVFYQGRYYESLTQLEDQFEAGLVNVVLVPNNGTGGSWSLKSSVPPGPAPPLQFHPQGPRFSVQGSQVSSSLWAFSFGLGAFSGPRIFDIRFQGERVAYEISVQEAIALYGGNSPASMSTCYVDGSFGIGKYSTPLIRGVDCPYLATYVDWHFLLESQAPKTLRDAFCVFEQNQGLPLRRHHSDFYSHYFGGVVGTVLVVRSVSTLLNYDYIWDMVFHPNGAIEVKFHATGYISSAFFFGAGEKFGNRVGAHTLGTVHTHSAHFKVDLDVAGLKNWAWAEDMAFVPTIVPWQPEYQMQRLQVTRKLLETEEEAAFPLGGATPRYLYLASNHSNKWGHRRGYRIQILSFAGKPLPQESPIEKAFTWGRYHLAVTQRKEEEPSSSSIFNQNDPWTPTVNFTDFISNETIAGEDLVAWVTAGFLHIPHAEDIPNTVTAGNSVGFFLRPYNFFDEDPSFHSADSIYFREGQDATACEVNPLACLSQTATCAPEIPAFSHGGFAYRDN
Regarding B2, in series [3] (setting [5]), the Km is 13.1 ± 11.4 µM and the Vmax came out at 20.1 µmol/min/mg.

B3: recombinant rat VAP-1 (Rattus norvegicus) (protein)
chain: RSGDGGRLSQPLHCPSVLPSVQPQTHPGQSQPFADLSPEELTAVMSFLIKHLGPGLVDAAQARPSDNCVFSVELQLPAKAAALAHLDRGGPPPVREALAIIFFGGQPKPNVSELVVGPLPHPSYMRDVTVERHGGPLPYYRRPVLTREYQDIQEMIFHRELPQASGLLHHCCFYKRQGHNLLKMTTAPRGLQSGDRATWFGIYYNLSGAGFYPHPIGLELLVDHKALDPALWTIQKVFYQGRYYESLTQLEDMFEAGLVNVVLVPDNGTGGSWSLKSSVPPGRAPPLQFHPEGPRFSVQGSQVRSSLWAFSFGLGAFSGPRIFDIRFQGERVAYEISVQEAIALYGGNSPASMSTCYMDGSFGIGKYSTPLTRGVDCPYLATYVDWHFLLESQTPKTLRDAFCVFEQNQGLPLRRHHSDFYSHYFGGVVETVLVVRSVATLLNYDYVWDMVFHSNGAIEVKFHATGYITSAFFFGAGEKFGNRVAEHTLGTVHTHNAHFKVDLDVAGLKNWAWAEDLAFVPMNVPWQPEFQMQRLQVTRKLLETEEEAAFPLGNATPRYLYLASNHSNKWGHRRGYRIQILSFAGKPLPQESPIEKAFTWGRYHLAVTQRKEEEPSSSSIYNQNDPWTPTVDFTDFISNETIAGEDLVAWVTAGFLHIPHAEDIPNTVTVGNGVGFFLRPYNFFDEDPSFYSPDSIYFRKDQDVTDCEVNSLACLSQTANCVPDLPAFSHGGFTYK
Regarding B3, in series [1] (setting [6]), the Michaelis constant (Km) stood at 8.31 µM and the Vmax came out at 1.19 μmoles/min/mg prot. Besides, in series [3] (setting [6]), the Km turned out to be 4.38 ± 0.361 µM and the Vmax came out at 20.2 µmol/min/mg.
